Reference: paper PMC1635293
Like-named read-outs stand apart in the source and are kept apart here.

Experiments:
Assay in all cases: competition
[1] = target: Exportin-5 (dmExp5);dmRanQ69L (GTP form) (Drosophila melanogaster?;Drosophila, UniProt Q9BP41;Q9VZ23 1-1241;1-216, |Q69L)
[2] = target: T1, Exportin-5 (hsExp5);hsRanQ69L (GTP form) (human;human, UniProt Q9HAV4;P62826 1-1204;1-216, |Q69L)
[3] = target: T2, Msn5p (yeast exportin-5 orthologue);Gsp1pQ71L (GTP form) (budding yeast;yeast, UniProt P52918;P32835 1-1224;1-219, |Q71L)
[4] = target: T2, Msn5p (yeast exportin-5 …); remark: listed apart in the source
[5] = target: T1, Exportin-5 (hsExp5);hsRanQ69L (GTP form); remark: listed apart in the source

T1 sequence (Q9HAV4 whole entry Q69L, one chain of several): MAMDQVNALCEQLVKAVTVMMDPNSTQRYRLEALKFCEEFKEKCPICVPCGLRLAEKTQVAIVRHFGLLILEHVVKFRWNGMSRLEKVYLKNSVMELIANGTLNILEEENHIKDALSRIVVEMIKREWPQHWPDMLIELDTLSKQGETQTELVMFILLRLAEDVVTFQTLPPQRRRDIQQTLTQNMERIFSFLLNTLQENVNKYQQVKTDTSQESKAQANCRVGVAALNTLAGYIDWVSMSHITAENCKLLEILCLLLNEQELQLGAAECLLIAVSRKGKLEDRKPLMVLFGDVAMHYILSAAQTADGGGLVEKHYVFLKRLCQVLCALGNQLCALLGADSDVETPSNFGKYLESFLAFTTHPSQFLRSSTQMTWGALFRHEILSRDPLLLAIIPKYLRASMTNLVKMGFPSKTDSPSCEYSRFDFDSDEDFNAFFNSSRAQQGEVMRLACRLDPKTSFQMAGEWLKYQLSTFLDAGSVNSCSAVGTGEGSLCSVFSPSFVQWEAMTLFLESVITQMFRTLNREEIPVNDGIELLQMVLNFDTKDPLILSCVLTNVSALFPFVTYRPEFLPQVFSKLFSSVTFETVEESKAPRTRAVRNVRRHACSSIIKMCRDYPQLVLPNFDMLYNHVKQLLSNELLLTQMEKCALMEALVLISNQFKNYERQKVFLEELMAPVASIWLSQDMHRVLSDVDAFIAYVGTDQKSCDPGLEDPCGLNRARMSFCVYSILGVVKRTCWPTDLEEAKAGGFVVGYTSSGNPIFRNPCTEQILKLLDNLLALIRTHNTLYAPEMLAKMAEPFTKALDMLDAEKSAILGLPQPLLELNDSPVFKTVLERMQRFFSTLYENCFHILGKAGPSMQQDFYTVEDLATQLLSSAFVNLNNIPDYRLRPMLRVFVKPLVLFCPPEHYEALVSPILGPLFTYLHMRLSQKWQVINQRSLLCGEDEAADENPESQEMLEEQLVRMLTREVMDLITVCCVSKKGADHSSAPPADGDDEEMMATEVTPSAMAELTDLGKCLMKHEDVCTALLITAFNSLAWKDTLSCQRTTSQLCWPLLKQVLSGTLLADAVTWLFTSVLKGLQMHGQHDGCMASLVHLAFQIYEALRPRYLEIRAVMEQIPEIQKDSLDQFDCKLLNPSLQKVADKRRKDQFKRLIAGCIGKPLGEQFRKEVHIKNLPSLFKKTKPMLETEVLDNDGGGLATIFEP

Binder	binding result [1]	binding result [2]	binding result [3]	binding result [4]	binding result [5]
dsRNA with 2 nt 3' overhang (22 bp dsRNA) (dsRNA) RNA 1: GGGCUUUCAGUCGGAUGUUUGCAGC RNA 2: UGCAAACAUCCGACUGAAAGC	binds	binds	–	–	–
dsDNA encoding the same sequence as the dsRNA (dsDNA) DNA 1: GGGCTTTCAGTCGGATGTTTGCAGC DNA 2: TGCAAACATCCGACTGAAAGC	no binding	no binding	no binding	–	–
dsRNA with 2 nt 5' overhang (dsRNA) RNA 1: GGGCUUUCAGUCGGAUGUUUG RNA 2: UGCAAACAUCCGACUGAAAGC	–	–	–	no binding	no binding
